This note sets out measurements from paper doi:10.1101/2022.07.13.499703.

Assay in all cases: crystal structure
Test [1] deals with BKPyV VP1 E73Q variant pentamer (BK polyomavirus) (UniProt P03088).
Test [2] concerns the target BKPyV VP1 E73A variant pentamer (BK polyomavirus) (UniProt P03088).
The target in test [3] is BKPyV VP1 K69N-E82Q double mutant (N-Q) pentamer (BK polyomavirus) (UniProt P03088).
Test [4] deals with BKPyV VP1 A72V-E73Q-E82Q triple mutant (VQQ) pentamer (BK polyomavirus) (UniProt P03088).

As to “BKPyV VP1 E73Q variant pentamer (from UniProt P03088 30-300) (domain or fragment)”, in test [1], the stoichiometry N (commonly a count of units in the complex or per binding partner) stood at 5. As to “BKPyV VP1 E73A variant pentamer (from UniProt P03088 30-300) (domain or fragment)”, the stoichiometry N in test [2] stood at 5. Substance “BKPyV VP1 K69N-E82Q double mutant (N-Q) pentamer (from UniProt P03088 30-300) (domain or fragment)” came in with a stoichiometry N in test [3] of 5.

“BKPyV VP1 A72V-E73Q-E82Q triple mutant (VQQ) pentamer (from UniProt P03088 30-300) (domain or fragment)” returned a stoichiometry N in test [4] of 5.
